Measured values: patent US20190240316A1 (published 2019)

How the values were obtained:
RPM = test: ELISA; printed as ng/uL
FFL_001 [1] = test: ELISA; printed as ng/uL
FFL_001 [2] = test: SPR

Binder	EC50 (RPM) [µg/mL]	EC50 (FFL_001 [1]) [µg/mL]	Kd (FFL_001 [2]) [nM]
14N4 (antibody, V domains shown) VH: QVQLVESGGGLIQPGGSLRLSCAVSGFTVSSKYMTWVRQAPGKGLEWVSVIYGGGSTYYADSVVGRFTISRDNSKNTLYLQMNSLRAEDTAVYYCASRLGVRATTGDLDYWGQGTLVTVSS VL: QIVMTQSPSTLSASVGDRVTITCRASQSISSWLAWYQQKPGKAPKLLIYDASSLESGVPSRFSGSGSGTEFTLTISSLQPDDFATYYCQQYNTYSWWTFGQGTKVEIK	7.4	19.3	–
14N4 (Fab, V domains shown) VH: QVQLVESGGGLIQPGGSLRLSCAVSGFTVSSKYMTWVRQAPGKGLEWVSVIYGGGSTYYADSVVGRFTISRDNSKNTLYLQMNSLRAEDTAVYYCASRLGVRATTGDLDYWGQGTLVTVSS VL: QIVMTQSPSTLSASVGDRVTITCRASQSISSWLAWYQQKPGKAPKLLIYDASSLESGVPSRFSGSGSGTEFTLTISSLQPDDFATYYCQQYNTYSWWTFGQGTKVEIK	–	–	1.37
3J20 (antibody, V domains shown) VH: EVQLVESGGGLVQPGGSLRLSCAASGFTFSSFTMNWVRQAPGKGLQWVSTISGSGGLTYYADSVKGRFTISRDNSKNTLSLQMNSLRAEDTAVYYCARDLEFTVTSYGGYYFEYWGQGTLVTVSS VL: not shown	12.7	11.1	–
3J20 (Fab, V domains shown) VH: EVQLVESGGGLVQPGGSLRLSCAASGFTFSSFTMNWVRQAPGKGLQWVSTISGSGGLTYYADSVKGRFTISRDNSKNTLSLQMNSLRAEDTAVYYCARDLEFTVTSYGGYYFEYWGQGTLVTVSS VL: not shown	–	–	1.05
13A8 (antibody, V domains shown) VH: QVQLVESGGGVVQPGKSLRLSCAASGYIFSSYDMHWVRQAPGKGLEWVAVISFDGTTQHYADSVRGRFTVSRDNSQNTVFLQMNSLRPEDTAVYYCVKEYVIVSTFFDYWGQGTLVTVSS VL: DIVMTQSPSSLSASVGDRVTITCRASQGIRNALGWYQHKPGKAPKVLIYAASRLQSGVPSRFSGSGSGTDFTLTISSLQPEDFATYYCLQDFNYPWTFGHGTKVEIK	14.8	17.9	–
13A8 (Fab, V domains shown) VH: QVQLVESGGGVVQPGKSLRLSCAASGYIFSSYDMHWVRQAPGKGLEWVAVISFDGTTQHYADSVRGRFTVSRDNSQNTVFLQMNSLRPEDTAVYYCVKEYVIVSTFFDYWGQGTLVTVSS VL: DIVMTQSPSSLSASVGDRVTITCRASQGIRNALGWYQHKPGKAPKVLIYAASRLQSGVPSRFSGSGSGTDFTLTISSLQPEDFATYYCLQDFNYPWTFGHGTKVEIK	–	–	0.2
Motavizumab (antibody, V domains shown) VH: QVTLRESGPALVKPTQTLTLTCTFSGFSLSTAGMSVGWIRQPPGKALEWLADIWWDDKKHYNPSLKDRLTISKDTSKNQVVLKVTNMDPADTATYYCARDMIFNFYFDVWGQGTTVTVSS VL: DIQMTQSPSTLSASVGDRVTITCSASSRVGYMHWYQQKPGKAPKLLIYDTSKLASGVPSRFSGSGSGTEFTLTISSLQPDDFATYYCFQGSGYPFTFGGGTKVEIK	16.7	10.4	–
Palivizumab (antibody, V domains shown) VH: QVTLRESGPALVKPTQTLTLTCTFSGFSLSTSGMSVGWIRQPPGKALEWLADIWWDDKKDYNPSLKSRLTISKDTSKNQVVLKVTNMDPADTATYYCARSMITNWYFDVWGAGTTVTVSS VL: DIQMTQSPSTLSASVGDRVTITCKCQLSVGYMHWYQQKPGKAPKLLIYDTSKLASGVPSRFSGSGSGTEFTLTISSLQPDDFATYYCFQGSGYPFTFGGGTKLEIK	26.1	49	–
